Assay results published in publication PMC7010609 (2020).
Changes are numbered by the printed parent chain. Names and notes keep the numbering of the source.

B1: Xenopus laevis Flag-FANCI wild type S557A; S560A; S566A; S597A; S618A; S630A (protein)
chain: MDQKILSLAAEEQNDGLQSYLQNLKETELSEIITKHAVKGKDCGALLRGVFKGSPCSHDVAVRRRLAVYRHCIQLVESGDLQREVASEIMGLLMLEVHHFPGASLIELANLFADAVKAGTLSNGKSLDLFPTVLTALSSKESLAYGKGELTGEEFKKQLINSLCSSRWDPQSVIFLTSMFRDVSLSAEELQFVVEKVLRMLSKLDLQEMPPLVYQLLLLSAKGSKKNIVEGIITIFNDLDQKQLVQQENSESLDLEDATIPQDQLHHVEGTIILHIVFAIKLDQELGRELLKYLKAGQQGDSSKILCPFSAALLLSVSRIHRFQEQVFDFLKSTILRDYKDLQFHQSSKFLQDLVPQPVCVSSILLETVKNSVYGWDHVTQGLVELGFILMDSFGPKAAFGNKVVELISVHSRTPSQQACQLGSRILLETFKVHEPIRSEILEQVLNRVITKAATPVTHFIDLLSDIVVSAPLILQNSSSKVTEAFDHLSFLPLTTVQGLLKAVQPLLKISMSMRDSLILVLRKAMFSSQIDARKSAVAGFLLLLRNFKVLGSLSSAQCAQAIGAAQIQVDVHMRYNAAANEAFCLEILGSLRRCLAQQADVRLMLYEGFYDVLRRNAQLASSVMQTLLAQLKRYYEPEPDLLPPLKLEGCITAQGDHIFLQEPLAHLLCCIHHCLQWYKSSLQQHRNPDEDDDDDDQTGCQQDLNDIMESITRRMIKCDLEDFELDKSADFSLASGVGVKNNIYAVLVMGICEVLIEYNFIIANFSKSKFEDILGLFKCCSKLSDILKEKAAKGRQPGNNKTARSLISMTFVSTLLTALFRDSTRSHEESLSILRANVDFMRYSVCVALQKIQQLEETGVTDGPDGQNSEKMFRSLCEITRVLMWRYTSIPAAAENPGKKDKGKTISLLCLEGLLRVFNTVQQRYPSKIPQFLTALDALGDEDEEGSREINVTEKAAFQIKQFQRSLINQLSGGEDDFNSKEALLLVSILSTLSRLLAPSSQQFVQMLSWTVKICKETNIEDVQFCKGIMNLLFSLHVQFKSPVSVLRELCQDIHGHLGDIDQDIEVEKQSHFATVSLKTAAPTVTLLVLGQAAKVLEEVDWLIIKLKGLLGSEKLSTEDLTQTSNARVPIEKAIILQLGTLLTACHELVQTALPAGSCTDTLLKELAKMYTILTSVVKYYLQICSSHGGQISARLEKLVKLSGSHLTPQCYAFITYVQNIHSESLSLAAEKKKKKKEEALTVTSAKILRDTKPIPNLIFAIEQYEKFLIHLSKKSKVNLMQYMKLSTSRDFRINAATLDAALQEKGSEDEENEPDNEQAVTEEESQEPKKKRRRK
B2: Xenopus laevis Flag-FANCI wild type S557D; S560D; S566D; S597D; S618D; S630D (protein)
chain: B1 chain with A557D, A560D, A566D, A597D, A618D, A630D
B3: Xenopus laevis Flag-FANCI S6D phosphomimic mutant (natural protein)
chain: B1 chain with Y20C, S302T, D338G, A557D, A560D, A566D, A597D, A618D, A630D, C781Y
modifications: Full length assumed, since construct limits are not printed. Flag tag left out. The L homeolog is assumed; if it has no entry or the checks fail, try fanci.S or fanci. Expressed in Hi5 insect cells.

What was measured:
[1] = target: Xenopus laevis StrepII-FANCD2; test: Biolayer interferometry (BLItz); conditions: StrepII-FANCD2-loaded biosensors in 20 ng/mL solution; FANCI 62.5-1000 nM
[2] = target: T1, Xenopus laevis StrepII-FANCD2 (Xenopus laevis); test: Biolayer interferometry (BLItz); conditions: StrepII-FANCD2-loaded biosensors in 20 ng/mL solution; FANCI 62.5-1000 nM
T1 chain: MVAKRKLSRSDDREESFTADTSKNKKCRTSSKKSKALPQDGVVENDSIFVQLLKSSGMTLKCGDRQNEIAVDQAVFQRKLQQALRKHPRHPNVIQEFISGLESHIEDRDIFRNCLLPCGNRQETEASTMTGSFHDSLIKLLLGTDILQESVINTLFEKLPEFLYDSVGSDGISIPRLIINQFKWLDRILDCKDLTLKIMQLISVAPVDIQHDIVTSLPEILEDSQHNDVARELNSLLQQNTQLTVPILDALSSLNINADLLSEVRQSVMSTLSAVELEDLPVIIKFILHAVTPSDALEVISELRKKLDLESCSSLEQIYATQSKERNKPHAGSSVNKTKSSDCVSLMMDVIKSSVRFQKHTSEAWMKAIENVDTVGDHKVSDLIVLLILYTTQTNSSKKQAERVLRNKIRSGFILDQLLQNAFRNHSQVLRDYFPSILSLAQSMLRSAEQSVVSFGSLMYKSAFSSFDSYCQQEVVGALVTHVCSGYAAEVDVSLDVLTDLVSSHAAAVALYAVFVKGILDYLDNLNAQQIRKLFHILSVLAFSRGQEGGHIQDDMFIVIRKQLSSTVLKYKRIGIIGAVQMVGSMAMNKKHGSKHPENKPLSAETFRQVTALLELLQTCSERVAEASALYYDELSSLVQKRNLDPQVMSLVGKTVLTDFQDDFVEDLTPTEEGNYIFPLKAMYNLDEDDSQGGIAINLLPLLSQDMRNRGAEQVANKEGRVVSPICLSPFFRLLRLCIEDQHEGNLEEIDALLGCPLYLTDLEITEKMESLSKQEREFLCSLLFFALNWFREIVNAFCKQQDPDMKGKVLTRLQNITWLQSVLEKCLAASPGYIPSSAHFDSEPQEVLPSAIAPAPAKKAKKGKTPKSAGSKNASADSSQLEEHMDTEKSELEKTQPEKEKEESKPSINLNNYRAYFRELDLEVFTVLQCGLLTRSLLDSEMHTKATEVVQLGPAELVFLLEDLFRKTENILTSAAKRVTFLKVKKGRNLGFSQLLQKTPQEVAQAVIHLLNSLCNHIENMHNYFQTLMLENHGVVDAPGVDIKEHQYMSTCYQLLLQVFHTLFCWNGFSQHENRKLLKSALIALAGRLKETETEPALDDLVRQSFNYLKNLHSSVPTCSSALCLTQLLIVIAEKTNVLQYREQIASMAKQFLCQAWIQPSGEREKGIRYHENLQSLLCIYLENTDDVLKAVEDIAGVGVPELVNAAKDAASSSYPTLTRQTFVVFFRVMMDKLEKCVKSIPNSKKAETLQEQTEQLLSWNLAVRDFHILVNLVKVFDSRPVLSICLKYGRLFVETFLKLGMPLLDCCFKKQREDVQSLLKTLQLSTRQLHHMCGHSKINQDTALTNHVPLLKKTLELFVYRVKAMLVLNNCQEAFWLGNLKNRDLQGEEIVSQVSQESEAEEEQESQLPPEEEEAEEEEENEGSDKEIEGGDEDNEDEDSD

[3] = target: T2, Xenopus laevis StrepII-FANCD2; test: Biolayer interferometry (BLItz); conditions: chain shown with the change; StrepII-FANCD2-loaded biosensors in 20 ng/mL solution; FANCI 62.5-1000 nM
T2 chain: T1 chain

[4] = target: T1, Xenopus laevis StrepII-FANCD2; test: BLI
[5] = target: T1, Xenopus laevis StrepII-FANCD2; test: BLI

Molecule | Kd [3] | koff [3] | also measured
Xenopus laevis Flag-FANCI wild type S557D; S560D; S566D; S597D; S618D; S630D |  |  | kon [1]: 39000 M⁻¹ s⁻¹
B1 | 10.1 nM | 9e-05 s⁻¹ | kon [2]: 11000 M⁻¹ s⁻¹
B2 | 136 nM | 0.0061 s⁻¹ | 
B3 |  |  | koff [4]: 0.0061 s⁻¹; Kd [5]: 136 nM
